Paper PMC10397247

T1: 4H3926-bN
T1 chain: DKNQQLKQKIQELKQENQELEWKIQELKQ

T2: 4H591-bN
T2 chain: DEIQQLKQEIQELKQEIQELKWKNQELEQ

T3: 4H906-bN
T3 chain: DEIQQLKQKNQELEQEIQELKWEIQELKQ

T4: 4H3298-bN
T4 chain: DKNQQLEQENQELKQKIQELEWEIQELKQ

T5: 4H3628-bN
T5 chain: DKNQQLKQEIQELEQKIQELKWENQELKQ

T6: 4H3497-bN
T6 chain: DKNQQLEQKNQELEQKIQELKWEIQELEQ

T7: 4H3462-bN
T7 chain: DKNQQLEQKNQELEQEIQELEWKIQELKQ

T8: 4H3613-bN
T8 chain: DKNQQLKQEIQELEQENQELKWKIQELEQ

T9: 4H3175-bN
T9 chain: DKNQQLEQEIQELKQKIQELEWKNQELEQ

T10: 4H3162-bN
T10 chain: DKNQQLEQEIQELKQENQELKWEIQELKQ

T11: O8-bN
T11 chain: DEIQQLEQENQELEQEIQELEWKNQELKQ

T12: 4H3277-bN
T12 chain: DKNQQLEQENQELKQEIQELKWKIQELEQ

T13: 4H626-bN
T13 chain: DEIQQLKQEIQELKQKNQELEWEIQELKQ

T14: 4H470-bA
T14 chain: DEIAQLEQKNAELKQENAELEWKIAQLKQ

T15: 4H3907-bA
T15 chain: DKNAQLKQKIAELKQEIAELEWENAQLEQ

T16: 4H607-bA
T16 chain: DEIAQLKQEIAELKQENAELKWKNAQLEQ

T17: 4H3961-bA
T17 chain: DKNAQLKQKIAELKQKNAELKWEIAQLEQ

T18: 4H4038-bA
T18 chain: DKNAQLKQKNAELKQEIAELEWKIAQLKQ

T19: 4H570-bN
T19 chain: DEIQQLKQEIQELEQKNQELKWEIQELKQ

T20: 4H3129-bN
T20 chain: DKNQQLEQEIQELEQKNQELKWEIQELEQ

T21: 4H3414-bN
T21 chain: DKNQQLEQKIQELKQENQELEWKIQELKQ

T22: 4H3172-bN
T22 chain: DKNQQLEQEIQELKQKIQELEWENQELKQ

T23: 4H3638-bN
T23 chain: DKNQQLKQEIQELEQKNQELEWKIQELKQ

T24: 4H3974-bN
T24 chain: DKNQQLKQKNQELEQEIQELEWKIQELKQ

T25: 4H3631-bN
T25 chain: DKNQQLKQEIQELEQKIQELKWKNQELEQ

T26: 4H619-bN
T26 chain: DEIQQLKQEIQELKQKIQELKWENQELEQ

T27: 4H3858-bN
T27 chain: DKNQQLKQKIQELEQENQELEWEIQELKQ

T28: 4H1985-bN
T28 chain: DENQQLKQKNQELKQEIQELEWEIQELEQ

T29: 4H3817-bN
T29 chain: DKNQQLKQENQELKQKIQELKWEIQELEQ

T30: 4H850-bN
T30 chain: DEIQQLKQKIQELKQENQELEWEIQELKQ

T31: 4H584-bN
T31 chain: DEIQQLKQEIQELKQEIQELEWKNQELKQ


How the values were obtained:
Experiment in all cases: two-hybrid library CCNG1;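 note: natural log of median RNA to DNA barcode read ratio; higher means stronger binding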
4H3926-bN = molecular target: T1, 4H3926-bN
4H591-bN = molecular target: T2, 4H591-bN
4H906-bN = molecular target: T3, 4H906-bN
4H3298-bN = molecular target: T4, 4H3298-bN
4H3628-bN = molecular target: T5, 4H3628-bN
4H3497-bN = molecular target: T6, 4H3497-bN
4H3462-bN = molecular target: T7, 4H3462-bN
4H3613-bN = molecular target: T8, 4H3613-bN
4H3175-bN = molecular target: T9, 4H3175-bN
4H3162-bN = molecular target: T10, 4H3162-bN
O8-bN = molecular target: T11, O8-bN
4H3277-bN = molecular target: T12, 4H3277-bN
4H626-bN = molecular target: T13, 4H626-bN
4H470-bA = molecular target: T14, 4H470-bA
4H3907-bA = molecular target: T15, 4H3907-bA
4H607-bA = molecular target: T16, 4H607-bA
4H3961-bA = molecular target: T17, 4H3961-bA
4H4038-bA = molecular target: T18, 4H4038-bA
4H570-bN = molecular target: T19, 4H570-bN
4H3129-bN = molecular target: T20, 4H3129-bN
4H3414-bN = molecular target: T21, 4H3414-bN
4H3172-bN = molecular target: T22, 4H3172-bN
4H3638-bN = molecular target: T23, 4H3638-bN
4H3974-bN = molecular target: T24, 4H3974-bN
4H3631-bN = molecular target: T25, 4H3631-bN
4H619-bN = molecular target: T26, 4H619-bN
4H3858-bN = molecular target: T27, 4H3858-bN
4H1985-bN = molecular target: T28, 4H1985-bN
4H3817-bN = molecular target: T29, 4H3817-bN
4H850-bN = molecular target: T30, 4H850-bN
4H584-bN = molecular target: T31, 4H584-bN

Row | Binder | interaction score (4H3926-bN) | interaction score (4H591-bN) | interaction score (4H906-bN) | interaction score (4H3298-bN) | interaction score (4H3628-bN) | interaction score (4H3497-bN) | interaction score (4H3462-bN) | interaction score (4H3613-bN) | interaction score (4H3175-bN) | interaction score (4H3162-bN) | interaction score (4H3277-bN) | interaction score (4H626-bN) | interaction score (4H4038-bA) | further results
1 | DKNQQLEQEIQELKQENQELKWEIQELKQ [4H3162-bN] | 0.163 | -1.33 | -0.289 | -0.102 | -0.668 | -0.903 | 0.241 | -1.7 | -0.427 | 0.979 | -0.514 | -1.41 |  | interaction score (O8-bN): -3.16
2 | DKNAQLKQKIAELKQEIAELEWENAQLEQ [4H3907-bA] |  |  |  |  |  |  |  |  |  |  |  |  | -0.611 | interaction score (4H470-bA): -1.37; interaction score (4H3907-bA): 0.8; interaction score (4H607-bA): -0.806; interaction score (4H3961-bA): -1.16
3 | DKNAQLKQKNAELKQEIAELEWKIAQLKQ [4H4038-bA] |  |  |  |  |  |  |  |  |  |  |  |  | -0.541 | 
4 | DENQQLKQKNQELKQEIQELEWEIQELEQ [4H1985-bN] | -1.25 | -0.871 | -1.03 | -0.626 | -1.17 | -1.28 | -1.4 | -1.86 | -2.05 | -1.41 | -1.75 | -0.889 |  | interaction score (4H570-bN): -1.42; interaction score (4H3129-bN): -2.06; interaction score (4H3414-bN): -1.17; interaction score (4H3172-bN): -0.909; interaction score (4H3638-bN): -1.17; interaction score (4H3974-bN): -1.17; interaction score (4H3631-bN): -1.53; interaction score (4H619-bN): -1.93; interaction score (4H3858-bN): -0.987; interaction score (4H1985-bN): -2.05; interaction score (4H3817-bN): -0.872; interaction score (4H850-bN): -1.6; interaction score (4H584-bN): -1.72
